# Columns and labels:
# [1] = biological target: SARS-CoV-2 Spike-2P stabilized S ectodomain trimer (SARS-CoV-2) (UniProt P0DTC2); experiment: SPR
# [2] = biological target: SARS-CoV-2 spike-HexaPro; experiment: SPR
# [3] = biological target: rhFcγRI/CD64 (human) (UniProt P12314); experiment: SPR, DH1042 captured on CM5, receptor titrated
# [4] = biological target: rhFcγRIIIA/CD16a (human) (UniProt P08637); experiment: SPR, DH1042 captured on CM5, receptor titrated
# [5] = biological target: Cent B, centromere B (human) (UniProt P07199); experiment: AtheNA Luminex, mAb at 25 (mg/mL [sic]); <100 negative
# [6] = biological target: Histone (human); experiment: as above
# [7] = biological target: Jo 1 (human) (UniProt P12081); experiment: as above
# [8] = biological target: RNP, ribonucleoprotein (human) (UniProt Q96LT9); experiment: as above
# [9] = biological target: SSA, Sjogren's syndrome antigen A (human); experiment: as above
# [10] = biological target: SSB, Sjogren's syndrome antigen B (human) (UniProt P05455); experiment: as above
# [11] = biological target: Scl 70, scleroderma 70 (human) (UniProt P11387); experiment: as above
# [12] = biological target: Sm, small nuclear riboproteins (human); experiment: as above
# [13] = biological target: Cent B, centromere B (human) (UniProt P07199); experiment: AtheNA Luminex, mAb at 50 (mg/mL [sic]); <100 negative
# [14] = biological target: Histone (human); experiment: as above
# [15] = biological target: Jo 1 (human) (UniProt P12081); experiment: as above
# [16] = biological target: RNP, ribonucleoprotein (human) (UniProt Q96LT9); experiment: as above
# [17] = biological target: SSA, Sjogren's syndrome antigen A (human); experiment: as above
# [18] = biological target: SSB, Sjogren's syndrome antigen B (human) (UniProt P05455); experiment: as above
# [19] = biological target: Scl 70, scleroderma 70 (human) (UniProt P11387); experiment: as above
# [20] = biological target: Sm, small nuclear riboproteins (human); experiment: as above
# [21] = biological target: Cent B, centromere B (human) (UniProt P07199); experiment: AtheNA Luminex, mAb at 12.5 (mg/mL [sic]); <100 negative
# [22] = biological target: Histone (human); experiment: as above
# [23] = biological target: Jo 1 (human) (UniProt P12081); experiment: as above
# [24] = biological target: RNP, ribonucleoprotein (human) (UniProt Q96LT9); experiment: as above
# [25] = biological target: SSA, Sjogren's syndrome antigen A (human); experiment: as above
# [26] = biological target: SSB, Sjogren's syndrome antigen B (human) (UniProt P05455); experiment: as above
# [27] = biological target: Scl 70, scleroderma 70 (human) (UniProt P11387); experiment: as above
# [28] = biological target: Sm, small nuclear riboproteins (human); experiment: as above
# [29] = biological target: Cent B, centromere B (human) (UniProt P07199); experiment: AtheNA Luminex, mAb at 6.25 (mg/mL [sic]); <100 negative
# [30] = biological target: Histone (human); experiment: as above
# [31] = biological target: Jo 1 (human) (UniProt P12081); experiment: as above
# [32] = biological target: RNP, ribonucleoprotein (human) (UniProt Q96LT9); experiment: as above
# [33] = biological target: SSA, Sjogren's syndrome antigen A (human); experiment: as above
# [34] = biological target: SSB, Sjogren's syndrome antigen B (human) (UniProt P05455); experiment: as above
# [35] = biological target: Scl 70, scleroderma 70 (human) (UniProt P11387); experiment: as above
# [36] = biological target: Sm, small nuclear riboproteins (human); experiment: as above
# [37] = biological target: SARS-CoV live virus spike (SARS-CoV) (UniProt P59594); experiment: cell-based or functional assay
# [38] = biological target: bat CoV RsSHC014 live virus spike (bat coronavirus RsSHC014); experiment: cell-based or functional assay
# [39] = biological target: bat CoV WIV-1 live virus spike (bat coronavirus WIV-1); experiment: cell-based or functional assay
# Sequence of UniProt P05455 (P05455 whole entry): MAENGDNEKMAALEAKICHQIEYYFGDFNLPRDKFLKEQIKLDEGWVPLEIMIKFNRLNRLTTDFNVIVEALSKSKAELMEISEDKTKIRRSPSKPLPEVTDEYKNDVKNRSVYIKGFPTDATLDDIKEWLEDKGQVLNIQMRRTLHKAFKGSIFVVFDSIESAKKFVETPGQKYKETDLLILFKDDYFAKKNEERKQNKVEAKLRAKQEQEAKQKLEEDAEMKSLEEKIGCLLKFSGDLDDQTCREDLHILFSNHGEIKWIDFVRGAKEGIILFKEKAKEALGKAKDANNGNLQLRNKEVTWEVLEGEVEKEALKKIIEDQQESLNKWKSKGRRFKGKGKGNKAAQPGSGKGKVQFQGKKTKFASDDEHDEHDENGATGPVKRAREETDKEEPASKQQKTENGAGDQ
# Sequence of UniProt Q96LT9 (Q96LT9 whole entry): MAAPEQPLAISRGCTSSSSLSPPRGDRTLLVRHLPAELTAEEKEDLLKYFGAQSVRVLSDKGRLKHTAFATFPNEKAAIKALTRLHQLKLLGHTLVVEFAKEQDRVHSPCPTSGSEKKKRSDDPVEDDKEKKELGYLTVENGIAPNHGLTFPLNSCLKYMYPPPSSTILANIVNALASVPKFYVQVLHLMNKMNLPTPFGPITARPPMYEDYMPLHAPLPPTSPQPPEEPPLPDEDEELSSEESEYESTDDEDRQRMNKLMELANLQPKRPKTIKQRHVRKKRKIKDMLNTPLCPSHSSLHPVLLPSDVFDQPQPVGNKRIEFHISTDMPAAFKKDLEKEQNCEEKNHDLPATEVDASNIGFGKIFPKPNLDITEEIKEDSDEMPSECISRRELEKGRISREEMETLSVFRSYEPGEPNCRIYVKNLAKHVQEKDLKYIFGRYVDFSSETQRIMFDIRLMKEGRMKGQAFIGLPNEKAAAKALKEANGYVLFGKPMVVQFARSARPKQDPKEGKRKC
# Sequence of UniProt P07199 (P07199 2-599): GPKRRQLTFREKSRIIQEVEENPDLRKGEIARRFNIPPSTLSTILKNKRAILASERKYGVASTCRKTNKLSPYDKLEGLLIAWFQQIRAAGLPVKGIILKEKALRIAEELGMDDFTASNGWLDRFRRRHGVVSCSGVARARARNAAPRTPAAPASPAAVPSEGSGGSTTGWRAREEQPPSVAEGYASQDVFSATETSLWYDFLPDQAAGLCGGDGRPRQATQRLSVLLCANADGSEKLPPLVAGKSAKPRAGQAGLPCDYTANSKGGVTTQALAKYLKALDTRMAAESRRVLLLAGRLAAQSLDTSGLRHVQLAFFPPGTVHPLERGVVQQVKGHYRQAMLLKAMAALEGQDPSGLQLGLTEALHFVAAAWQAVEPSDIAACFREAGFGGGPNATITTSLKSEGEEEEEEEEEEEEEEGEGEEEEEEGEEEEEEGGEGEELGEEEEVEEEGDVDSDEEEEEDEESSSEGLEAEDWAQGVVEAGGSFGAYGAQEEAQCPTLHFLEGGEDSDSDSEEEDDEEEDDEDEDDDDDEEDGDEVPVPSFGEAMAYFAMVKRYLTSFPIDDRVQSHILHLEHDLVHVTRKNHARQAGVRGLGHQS
# Sequence of UniProt P12081 (P12081 2-509): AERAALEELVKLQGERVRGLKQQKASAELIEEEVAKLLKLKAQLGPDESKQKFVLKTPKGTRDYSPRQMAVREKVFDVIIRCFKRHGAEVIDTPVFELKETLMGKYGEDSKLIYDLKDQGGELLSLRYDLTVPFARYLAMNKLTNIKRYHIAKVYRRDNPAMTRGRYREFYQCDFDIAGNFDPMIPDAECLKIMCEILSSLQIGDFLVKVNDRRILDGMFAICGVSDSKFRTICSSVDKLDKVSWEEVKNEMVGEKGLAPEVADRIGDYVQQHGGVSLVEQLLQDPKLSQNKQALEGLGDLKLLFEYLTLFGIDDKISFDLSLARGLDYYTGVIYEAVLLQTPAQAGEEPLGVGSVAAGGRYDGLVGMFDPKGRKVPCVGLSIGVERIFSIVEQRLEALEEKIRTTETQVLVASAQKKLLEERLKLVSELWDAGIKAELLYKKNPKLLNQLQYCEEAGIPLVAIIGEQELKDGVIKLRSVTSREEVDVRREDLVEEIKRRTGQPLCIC
# Sequence of UniProt P11387 (P11387 2-765): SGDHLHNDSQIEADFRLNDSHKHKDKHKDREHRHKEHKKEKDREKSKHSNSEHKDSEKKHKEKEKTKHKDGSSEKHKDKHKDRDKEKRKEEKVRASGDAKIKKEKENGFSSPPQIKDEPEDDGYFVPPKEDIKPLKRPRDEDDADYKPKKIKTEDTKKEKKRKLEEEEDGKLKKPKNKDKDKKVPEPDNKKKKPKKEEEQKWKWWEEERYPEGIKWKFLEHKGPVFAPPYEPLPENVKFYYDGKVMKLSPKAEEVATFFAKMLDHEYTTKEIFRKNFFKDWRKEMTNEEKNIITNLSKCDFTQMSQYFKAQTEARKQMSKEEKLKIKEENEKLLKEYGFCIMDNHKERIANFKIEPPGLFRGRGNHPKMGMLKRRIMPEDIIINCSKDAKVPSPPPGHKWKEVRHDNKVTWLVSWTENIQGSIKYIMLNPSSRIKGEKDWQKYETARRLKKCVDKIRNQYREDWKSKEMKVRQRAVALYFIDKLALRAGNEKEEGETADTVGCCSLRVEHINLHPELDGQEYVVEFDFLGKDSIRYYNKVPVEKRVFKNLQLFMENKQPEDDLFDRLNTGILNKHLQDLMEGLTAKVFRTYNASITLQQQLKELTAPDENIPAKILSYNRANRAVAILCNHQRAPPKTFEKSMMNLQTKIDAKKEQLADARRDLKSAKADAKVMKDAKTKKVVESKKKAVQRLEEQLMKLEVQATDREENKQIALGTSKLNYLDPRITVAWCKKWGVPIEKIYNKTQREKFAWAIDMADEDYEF
# Sequence of UniProt P08637 (P08637 17-208 limits assumed): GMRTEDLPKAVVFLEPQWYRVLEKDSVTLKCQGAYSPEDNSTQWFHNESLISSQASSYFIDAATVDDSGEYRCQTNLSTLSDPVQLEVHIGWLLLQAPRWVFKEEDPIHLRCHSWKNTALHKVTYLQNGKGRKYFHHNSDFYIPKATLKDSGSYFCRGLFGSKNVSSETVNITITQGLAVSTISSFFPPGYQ
# Sequence of UniProt P12314 (P12314 16-288 limits assumed): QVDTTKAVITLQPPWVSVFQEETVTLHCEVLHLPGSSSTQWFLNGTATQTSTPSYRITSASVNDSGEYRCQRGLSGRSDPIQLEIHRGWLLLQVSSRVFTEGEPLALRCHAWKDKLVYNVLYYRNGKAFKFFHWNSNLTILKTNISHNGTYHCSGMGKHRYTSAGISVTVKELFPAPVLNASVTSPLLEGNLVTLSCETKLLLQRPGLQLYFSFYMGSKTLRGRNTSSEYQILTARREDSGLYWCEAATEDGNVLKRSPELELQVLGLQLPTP
substance,measurement,setting,value
DH1042,Kd,[1],0.6 nM
same,Kd,[2],0.8 nM
DH1042 (antibody),Kd,[3],414000 nM
same,Kd,[4],406 nM
same,AtheNA value,[5],26
same,AtheNA value,[6],6
same,AtheNA value,[7],4
same,AtheNA value,[8],4
same,AtheNA value,[9],2
same,AtheNA value,[10],5
same,AtheNA value,[11],2
same,AtheNA value,[12],2
same,AtheNA value,[13],56
same,AtheNA value,[14],9
same,AtheNA value,[15],2
same,AtheNA value,[16],6
same,AtheNA value,[17],2
same,AtheNA value,[18],4
same,AtheNA value,[19],1
same,AtheNA value,[20],3
same,AtheNA value,[21],12
same,AtheNA value,[22],3
same,AtheNA value,[23],1
same,AtheNA value,[24],0
same,AtheNA value,[25],3
same,AtheNA value,[26],2
same,AtheNA value,[27],0
same,AtheNA value,[28],1
same,AtheNA value,[29],6
same,AtheNA value,[30],2
same,AtheNA value,[31],2
same,AtheNA value,[32],1
same,AtheNA value,[33],1
same,AtheNA value,[34],3
same,AtheNA value,[35],1
same,AtheNA value,[36],3
DH1047,Kd,[1],< 0.1 nM
same,Kd,[2],0.08 nM
DH1047 (antibody),live virus neutralization IC50,[37],0.028 µg/mL
same,live virus neutralization IC50,[38],0.2 µg/mL
same,live virus neutralization IC50,[39],0.191 µg/mL

# From patent US20250188154A1
